B1: Pistol ribozyme (parent)
chain: GGGUCGUUGUUCCAUAAUCGCGUGGAUAUGGCACGCAAGUUUCUACCGGGCACCGUAAAUGUCCGACUGGAGCCGUUCGGGCGGCUAUAAACAGACCUCAGGCCCGAAGCGUGGCGGCACCUGCCGCCGGUGGUAAAAAAGAUCGGAAGAGCACACGUCU

Variants of: B1
Test: aptazyme ON/OFF ratio, guanine; higher = stronger switching; co-transcriptional cleavage with and without guanine

| Variant | aptazyme ON/OFF ratio |
| --- | --- |
| GGGUCGAUGUCGCAUAAUCGCGUGGAUAUGGCACGCAAGUUUCUACCGGGCACCGUAAAUGUCCGACUGGAGCCGUUCGGGCGGCUAUAAACAGACCUCAGGCCCGAAGCGUGGCGGCACCUGCCGCCGGUGGUAAAAAAGAUCGGAAGAGCACACGUCU [U7A U11C C12G] | 1.08 |
| GGGUCGAUGUCACAUAAUCGCGUGGAUAUGGCACGCAAGUUUCUACCGGGCACCGUAAAUGUCCGACUGGAGCCGUUCGGGCGGCUAUAAACAGACCUCAGGCCCGAAGCGUGGCGGCACCUGCCGCCGGUGGUAAAAAAGAUCGGAAGAGCACACGUCU [U7A U11C C12A] | 1.39 |
| GGGUCGAUGUACUAUAAUCGCGUGGAUAUGGCACGCAAGUUUCUACCGGGCACCGUAAAUGUCCGACUGGAGCCGUUCGGGCGGCUAUAAACAGACCUCAGGCCCGAAGCGUGGCGGCACCUGCCGCCGGUGGUAAAAAAGAUCGGAAGAGCACACGUCU [U7A U11A C13U] | 1.13 |
| GGGUCGAUGUACGAUAAUCGCGUGGAUAUGGCACGCAAGUUUCUACCGGGCACCGUAAAUGUCCGACUGGAGCCGUUCGGGCGGCUAUAAACAGACCUCAGGCCCGAAGCGUGGCGGCACCUGCCGCCGGUGGUAAAAAAGAUCGGAAGAGCACACGUCU [U7A U11A C13G] | 1.16 |
| GGGUCGAUGUACAAUAAUCGCGUGGAUAUGGCACGCAAGUUUCUACCGGGCACCGUAAAUGUCCGACUGGAGCCGUUCGGGCGGCUAUAAACAGACCUCAGGCCCGAAGCGUGGCGGCACCUGCCGCCGGUGGUAAAAAAGAUCGGAAGAGCACACGUCU [U7A U11A C13A] | 1.13 |
| GGGUCGAUGUCAUAUAAUCGCGUGGAUAUGGCACGCAAGUUUCUACCGGGCACCGUAAAUGUCCGACUGGAGCCGUUCGGGCGGCUAUAAACAGACCUCAGGCCCGAAGCGUGGCGGCACCUGCCGCCGGUGGUAAAAAAGAUCGGAAGAGCACACGUCU [U7A U11C C12A C13U] | 1.19 |
| GGGUCGAUGUCAGAUAAUCGCGUGGAUAUGGCACGCAAGUUUCUACCGGGCACCGUAAAUGUCCGACUGGAGCCGUUCGGGCGGCUAUAAACAGACCUCAGGCCCGAAGCGUGGCGGCACCUGCCGCCGGUGGUAAAAAAGAUCGGAAGAGCACACGUCU [U7A U11C C12A C13G] | 1.22 |
| GGGUCGAUGUCAAAUAAUCGCGUGGAUAUGGCACGCAAGUUUCUACCGGGCACCGUAAAUGUCCGACUGGAGCCGUUCGGGCGGCUAUAAACAGACCUCAGGCCCGAAGCGUGGCGGCACCUGCCGCCGGUGGUAAAAAAGAUCGGAAGAGCACACGUCU [U7A U11C C12A C13A] | 1.35 |
| GGGUCGAUGUCCCAUAAUCGCGUGGAUAUGGCACGCAAGUUUCUACCGGGCACCGUAAAUGUCCGACUGGAGCCGUUCGGGCGGCUAUAAACAGACCUCAGGCCCGAAGCGUGGCGGCACCUGCCGCCGGUGGUAAAAAAGAUCGGAAGAGCACACGUCU [U7A U11C] | 1.29 |
| GGGUCGAUGUACCAUAAUCGCGUGGAUAUGGCACGCAAGUUUCUACCGGGCACCGUAAAUGUCCGACUGGAGCCGUUCGGGCGGCUAUAAACAGACCUCAGGCCCGAAGCGUGGCGGCACCUGCCGCCGGUGGUAAAAAAGAUCGGAAGAGCACACGUCU [U7A U11A] | 1.24 |
| GGGUCGAUGUAUAAUAAUCGCGUGGAUAUGGCACGCAAGUUUCUACCGGGCACCGUAAAUGUCCGACUGGAGCCGUUCGGGCGGCUAUAAACAGACCUCAGGCCCGAAGCGUGGCGGCACCUGCCGCCGGUGGUAAAAAAGAUCGGAAGAGCACACGUCU [U7A U11A C12U C13A] | 1.26 |
| GGGUCGAUGUAUGAUAAUCGCGUGGAUAUGGCACGCAAGUUUCUACCGGGCACCGUAAAUGUCCGACUGGAGCCGUUCGGGCGGCUAUAAACAGACCUCAGGCCCGAAGCGUGGCGGCACCUGCCGCCGGUGGUAAAAAAGAUCGGAAGAGCACACGUCU [U7A U11A C12U C13G] | 1.36 |
| GGGUCGAUGUAUUAUAAUCGCGUGGAUAUGGCACGCAAGUUUCUACCGGGCACCGUAAAUGUCCGACUGGAGCCGUUCGGGCGGCUAUAAACAGACCUCAGGCCCGAAGCGUGGCGGCACCUGCCGCCGGUGGUAAAAAAGAUCGGAAGAGCACACGUCU [U7A U11A C12U C13U] | 1.31 |
| GGGUCGAUGGGUCAUAAUCGCGUGGAUAUGGCACGCAAGUUUCUACCGGGCACCGUAAAUGUCCGACUGGAGCCGUUCGGGCGGCUAUAAACAGACCUCAGGCCCGAAGCGUGGCGGCACCUGCCGCCGGUGGUAAAAAAGAUCGGAAGAGCACACGUCU [U7A U10G U11G C12U] | 1.28 |
| GGGUCGAUGGGGCAUAAUCGCGUGGAUAUGGCACGCAAGUUUCUACCGGGCACCGUAAAUGUCCGACUGGAGCCGUUCGGGCGGCUAUAAACAGACCUCAGGCCCGAAGCGUGGCGGCACCUGCCGCCGGUGGUAAAAAAGAUCGGAAGAGCACACGUCU [U7A U10G U11G C12G] | 1.45 |
| GGGUCGAUGGGCGAUAAUCGCGUGGAUAUGGCACGCAAGUUUCUACCGGGCACCGUAAAUGUCCGACUGGAGCCGUUCGGGCGGCUAUAAACAGACCUCAGGCCCGAAGCGUGGCGGCACCUGCCGCCGGUGGUAAAAAAGAUCGGAAGAGCACACGUCU [U7A U10G U11G C13G] | 1.16 |
| GGGUCGAUGGGCUAUAAUCGCGUGGAUAUGGCACGCAAGUUUCUACCGGGCACCGUAAAUGUCCGACUGGAGCCGUUCGGGCGGCUAUAAACAGACCUCAGGCCCGAAGCGUGGCGGCACCUGCCGCCGGUGGUAAAAAAGAUCGGAAGAGCACACGUCU [U7A U10G U11G C13U] | 1.27 |
| GGGUCGAUGGGCAAUAAUCGCGUGGAUAUGGCACGCAAGUUUCUACCGGGCACCGUAAAUGUCCGACUGGAGCCGUUCGGGCGGCUAUAAACAGACCUCAGGCCCGAAGCGUGGCGGCACCUGCCGCCGGUGGUAAAAAAGAUCGGAAGAGCACACGUCU [U7A U10G U11G C13A] | 1.12 |

| Variant | aptazyme ON/OFF ratio |
| --- | --- |
| GGGUCGAUGGGAAAUAAUCGCGUGGAUAUGGCACGCAAGUUUCUACCGGGCACCGUAAAUGUCCGACUGGAGCCGUUCGGGCGGCUAUAAACAGACCUCAGGCCCGAAGCGUGGCGGCACCUGCCGCCGGUGGUAAAAAAGAUCGGAAGAGCACACGUCU [U7A U10G U11G C12A C13A] | 1.19 |
| GGGUCGAUGGGAUAUAAUCGCGUGGAUAUGGCACGCAAGUUUCUACCGGGCACCGUAAAUGUCCGACUGGAGCCGUUCGGGCGGCUAUAAACAGACCUCAGGCCCGAAGCGUGGCGGCACCUGCCGCCGGUGGUAAAAAAGAUCGGAAGAGCACACGUCU [U7A U10G U11G C12A C13U] | 1.22 |
| GGGUCGAUGGGAGAUAAUCGCGUGGAUAUGGCACGCAAGUUUCUACCGGGCACCGUAAAUGUCCGACUGGAGCCGUUCGGGCGGCUAUAAACAGACCUCAGGCCCGAAGCGUGGCGGCACCUGCCGCCGGUGGUAAAAAAGAUCGGAAGAGCACACGUCU [U7A U10G U11G C12A C13G] | 1.16 |
| GGGUCGAUGGGUGAUAAUCGCGUGGAUAUGGCACGCAAGUUUCUACCGGGCACCGUAAAUGUCCGACUGGAGCCGUUCGGGCGGCUAUAAACAGACCUCAGGCCCGAAGCGUGGCGGCACCUGCCGCCGGUGGUAAAAAAGAUCGGAAGAGCACACGUCU [U7A U10G U11G C12U C13G] | 1.23 |
| GGGUCGAUGGGUUAUAAUCGCGUGGAUAUGGCACGCAAGUUUCUACCGGGCACCGUAAAUGUCCGACUGGAGCCGUUCGGGCGGCUAUAAACAGACCUCAGGCCCGAAGCGUGGCGGCACCUGCCGCCGGUGGUAAAAAAGAUCGGAAGAGCACACGUCU [U7A U10G U11G C12U C13U] | 1.2 |
| GGGUCGAUGGGUAAUAAUCGCGUGGAUAUGGCACGCAAGUUUCUACCGGGCACCGUAAAUGUCCGACUGGAGCCGUUCGGGCGGCUAUAAACAGACCUCAGGCCCGAAGCGUGGCGGCACCUGCCGCCGGUGGUAAAAAAGAUCGGAAGAGCACACGUCU [U7A U10G U11G C12U C13A] | 1.33 |
| GGGUCGAUGGGGGAUAAUCGCGUGGAUAUGGCACGCAAGUUUCUACCGGGCACCGUAAAUGUCCGACUGGAGCCGUUCGGGCGGCUAUAAACAGACCUCAGGCCCGAAGCGUGGCGGCACCUGCCGCCGGUGGUAAAAAAGAUCGGAAGAGCACACGUCU [U7A U10G U11G C12G C13G] | 1.28 |
| GGGUCGAUGGGGAAUAAUCGCGUGGAUAUGGCACGCAAGUUUCUACCGGGCACCGUAAAUGUCCGACUGGAGCCGUUCGGGCGGCUAUAAACAGACCUCAGGCCCGAAGCGUGGCGGCACCUGCCGCCGGUGGUAAAAAAGAUCGGAAGAGCACACGUCU [U7A U10G U11G C12G C13A] | 1.11 |
| GGGUCGAUGGGGUAUAAUCGCGUGGAUAUGGCACGCAAGUUUCUACCGGGCACCGUAAAUGUCCGACUGGAGCCGUUCGGGCGGCUAUAAACAGACCUCAGGCCCGAAGCGUGGCGGCACCUGCCGCCGGUGGUAAAAAAGAUCGGAAGAGCACACGUCU [U7A U10G U11G C12G C13U] | 1.22 |
| GGGUCGAUGUAGGAUAAUCGCGUGGAUAUGGCACGCAAGUUUCUACCGGGCACCGUAAAUGUCCGACUGGAGCCGUUCGGGCGGCUAUAAACAGACCUCAGGCCCGAAGCGUGGCGGCACCUGCCGCCGGUGGUAAAAAAGAUCGGAAGAGCACACGUCU [U7A U11A C12G C13G] | 1.14 |
| GGGUCGAUGUAGAAUAAUCGCGUGGAUAUGGCACGCAAGUUUCUACCGGGCACCGUAAAUGUCCGACUGGAGCCGUUCGGGCGGCUAUAAACAGACCUCAGGCCCGAAGCGUGGCGGCACCUGCCGCCGGUGGUAAAAAAGAUCGGAAGAGCACACGUCU [U7A U11A C12G C13A] | 1.08 |
| GGGUCGAUGUAGUAUAAUCGCGUGGAUAUGGCACGCAAGUUUCUACCGGGCACCGUAAAUGUCCGACUGGAGCCGUUCGGGCGGCUAUAAACAGACCUCAGGCCCGAAGCGUGGCGGCACCUGCCGCCGGUGGUAAAAAAGAUCGGAAGAGCACACGUCU [U7A U11A C12G C13U] | 1.24 |
| GGGUCGAUGUAGCAUAAUCGCGUGGAUAUGGCACGCAAGUUUCUACCGGGCACCGUAAAUGUCCGACUGGAGCCGUUCGGGCGGCUAUAAACAGACCUCAGGCCCGAAGCGUGGCGGCACCUGCCGCCGGUGGUAAAAAAGAUCGGAAGAGCACACGUCU [U7A U11A C12G] | 1.2 |
| GGGUCGAUGUAACAUAAUCGCGUGGAUAUGGCACGCAAGUUUCUACCGGGCACCGUAAAUGUCCGACUGGAGCCGUUCGGGCGGCUAUAAACAGACCUCAGGCCCGAAGCGUGGCGGCACCUGCCGCCGGUGGUAAAAAAGAUCGGAAGAGCACACGUCU [U7A U11A C12A] | 1.41 |
| GGGUCGAUGUAUCAUAAUCGCGUGGAUAUGGCACGCAAGUUUCUACCGGGCACCGUAAAUGUCCGACUGGAGCCGUUCGGGCGGCUAUAAACAGACCUCAGGCCCGAAGCGUGGCGGCACCUGCCGCCGGUGGUAAAAAAGAUCGGAAGAGCACACGUCU [U7A U11A C12U] | 1.26 |
| GGGUCGAUGUAAGAUAAUCGCGUGGAUAUGGCACGCAAGUUUCUACCGGGCACCGUAAAUGUCCGACUGGAGCCGUUCGGGCGGCUAUAAACAGACCUCAGGCCCGAAGCGUGGCGGCACCUGCCGCCGGUGGUAAAAAAGAUCGGAAGAGCACACGUCU [U7A U11A C12A C13G] | 1.26 |
| GGGUCGAUGUAAAAUAAUCGCGUGGAUAUGGCACGCAAGUUUCUACCGGGCACCGUAAAUGUCCGACUGGAGCCGUUCGGGCGGCUAUAAACAGACCUCAGGCCCGAAGCGUGGCGGCACCUGCCGCCGGUGGUAAAAAAGAUCGGAAGAGCACACGUCU [U7A U11A C12A C13A] | 1.3 |
| GGGUCGAUGUAAUAUAAUCGCGUGGAUAUGGCACGCAAGUUUCUACCGGGCACCGUAAAUGUCCGACUGGAGCCGUUCGGGCGGCUAUAAACAGACCUCAGGCCCGAAGCGUGGCGGCACCUGCCGCCGGUGGUAAAAAAGAUCGGAAGAGCACACGUCU [U7A U11A C12A C13U] | 1.41 |

— the RNAGym collection of RNA variant scans (doi:10.1021/acssynbio.7b00057)
